Assay results as given in patent US20150359849A1, “METHODS OF INCREASING NEURONAL CONNECTIVITY AND/OR TREATING A NEURODEGENERATIVE CONDITION” (PRESIDENT AND FELLOWS OF HARVARD COLLEGE, priority 2013, published 2015).

B1: BDNF: a neuronal activity-regulated secreted factor (protein, UniProt P23560 19-247, looked up)
Neurotrophic factor BDNF …: APMKEANIRGQGGLAYPGVRTHGTLESVNGPKAGSRGLTSLADTFEHVIEELLDEDQKVRPNEENNKDADLYTSRVMLSSQVPLEPPLLFLLEEYKNYLDAANMSMRVRRHSDPARRGELSVCDSISEWVTAADKKTAVDMSGGTVTVLEKVPVSKGQLKQYFYETKCNPMGYTKEGCRGIDKRHWNSQCRTTQSYVRALTMDSKKRIGWRFIRIDTSCVCTLTIKRGR
B2: OSTN: recombinant human osteocrin protein; a secreted protein produced by cells of the osteoblast lineage (protein, listed as Homo sapiens)
chain: MLDWRLASAHFILAVTLTLWSSGKVLSVDVTTTEAFDSGVIDVQSTPTVREEKSATDLTAKLLLLDELVSLENDVIETKKKRSFSGFGSPLDRLSAGSVDHKGKQRKVVDHPKRRFGIPMDRIGRNRLSNSRG

Legend:
Assay type in all cases: cell-based
osteocrin expression = assay: induction of osteocrin expression in human cultures; conditions: addition to human cultures
human neurons = assay: neuronal survival assay: number of MAP2 positive cells; conditions: about 80,000 to about 130,000 cells/cm^2, where neighboring neurons could provide trophic support
Procedure: FIGS. 4A-4C are experimental data showing that osteocrin promotes human neuronal survival. FIGS. 4A-4B are fluorescent images showing culture of primary human neurons with or without recombinant OSTN. In FIGS. 4A-4B, primary human neurons were cultured for 10 days in vitro with and without recombinant OSTN (˜50 ng/ml), fixed and immunostained with neuronal marker MAP2 and nuclear marker DAPI. FIG. 4C is a quantitative bar graph showing the number of MAP2 positive neurons per measured area at DIV10 in human neuronal cultures with or without recombinant OSTN. The data are represented as mean±SEM. As used herein throughout the specification, the abbreviation “DIV” stands for Day In Vitro, i.e., the number of days neurons have grown in culture.
As presented herein, the inventors discovered OSTN as a human-specific activity-regulated secreted molecule. […] Neurons were grown, e.g., at a density of about 40,000 cells/cm^2, in the presence or absence of OSTN (e.g., ˜50 ng/ml) for a period of time, e.g., about 6 days between DIV4 to DIV10. After the period of time (e.g., about 6 days), samples were fixed and stained for dendritic and/or nuclear markers (FIGS. 4A-4B). Neuronal survival was assayed, for example, by quantifying the number of MAP2 positive cells after the neurons were cultured with or without OSTN for a pre-determined period of time (e.g., detected at DIV10). […]

primary human neurons = assay: human axonal growth assay in microfluidic chambers
Procedure: FIGS. 5A-5G are experimental data showing that osteocrin promotes human axonal growth. FIG. 5A is a schematic diagram of microfluidic chambers, e.g., for use in a human axonal growth assay. The bracket denotes the area where images were approximately acquired. In FIGS. 5B-5E, primary human neurons were cultured for 21 days in vitro in the microfluidic chamber with (FIG. 5C and FIG. 5E) and without (FIG. 5B and FIG. 5D) recombinant OSTN (˜100 ng/ml). FIGS. 5B-5C are brightfield images of axons imaged live by a bright-field microscope. FIGS. 5D-5E are fluorescent images of axons fixed and immunostained with axonal marker Neurofilament (NF). FIG. 5F is a quantitative bar graph showing axonal length extension of OSTN-treated neurons, normalized to the control experiment. FIG. 5G is a quantitative bar graph showing the number of MAP2-positive neurons per measured area inside the chamber. The data are represented as mean±SEM.
To assess the effect of OSTN on axonal outgrowth, a human axonal growth assay was developed by using microfluidic chambers (e.g., obtained from Xona Microfluidics, Temecula, Calif.) (FIG. 5A). In this assay, primary human neurons were seeded in the presence or absence of OSTN into the microfluidic chambers and cultured for a sufficient period of time to allow their axons grow through microchannels that were designed to be small enough to only allow axons, not dendrites, to pass through. For example, after about 21 days, axons were imaged both live (FIGS. 5B-5C) and after stained with an axonal marker, e.g., an anti-neurofilament antibody (FIGS. 5D-5E). Human axons grew slowly in the absence of OSTN and at DIV21 only few axonal processes were visible (FIGS. 5B and 5D). […] These findings shown that human-specific activity-regulated factor OSTN is a regulator of the axonal growth in human neurons.

[1] = test system: human primary neuronal cultures; assay: neuronal connectivity assay: human primary neuronal cultures fixed and stained for dendritic and synaptic markers
Procedure: FIGS. 3A-3E are experimental data showing that osteocrin promotes human neuronal connectivity. FIGS. 3A-3D are fluorescent images of primary human neurons fixed and immunostained with neuronal and synaptic markers, e.g., microtubule-associated protein 2 (MAP2), postsynaptic density protein-95 (PSD95) and synapsin after cultured for about 10 days in vitro with and without recombinant OSTN (˜50 ng/mL). […] FIG. 3E is a bar graph showing quantification results of excitatory synapse number in human neuronal cultures with increasing concentrations (˜0.5-˜50 ng/mL) of recombinant OSTN. In particular, the human neuronal cultures were treated with recombinant OSTN at a concentration of ˜0.5 ng/mL, ˜5 ng/mL, or ˜50 ng/mL. The data are represented as mean±SEM from n=5.
No role has previously been described for OSTN in nervous system development or particularly human nervous system development; however, OSTN has been reported to be secreted from bone-forming cells to promote the proliferation of bone precursors. In order to assess the roles of OSTN in human neuronal function, human primary neuronal cultures were treated with increasing concentrations of an osteocrin-inducing agent, e.g., but not limited to, a recombinant human OSTN protein. After about 6 days, samples were fixed and stained for neuronal markers, e.g., dendritic and/or synaptic markers, to examine effects on neuronal connectivity (FIGS. 3A-3D). Neuronal excitatory synaptic connections can be assayed by any methods known in the art, e.g., by quantifying the density of closely apposed puncta labeling pre- and post-synaptic markers along neuronal dendrites.

[2] = recombinant OSTN ~50 ng/mL, about 10 days in vitro

| Molecule | effect on induction of osteocrin expression (osteocrin expression) | significant increase in neuronal survival at standard or higher densities (human neurons) | number of neuronal cells (MAP2-positive) in the chambers with OSTN treatment (primary human neurons; recombinant OSTN ~100 ng/ml, DIV21) | axonal growth in the presence of OSTN (primary human neurons; recombinant OSTN ~100 ng/ml, about 21 days in vitro, imaged live and neurofilament stained) | increase in axonal growth of human neurons as compared to neural cells without treatment of OSTN (primary human neurons; summary statement in the description) | dendritic density following OSTN treatment ([1]; data not shown) | total dendritic length following OSTN treatment ([1]; data not shown) | expression of PSD95 and synapsin (immunostaining) compared to control neurons [1, 2] | network of microtubules (MAP2 immunostaining) compared to control neurons [1, 2] | increase in excitatory synapse density as compared to mock-treated controls ([1]; recombinant human OSTN protein, increasing concentrations (~0.5-~50 ng/mL), after about 6 days, closely apposed pre- and post-synaptic puncta along dendrites) |
| --- | --- | --- | --- | --- | --- | --- | --- | --- | --- | --- |
| B1 | does not have any significant effect |  |  |  |  |  |  |  |  |  |
| B2 |  | not observed | did not appear to change | neurons grow axons of dramatic lengths and complexities | at least 2 fold | Increases were also observed | Increases were also observed | expressed higher levels of PSD95 and synapsins | formed a denser network of microtubules | at least 3 fold |
